Measurements as given in patent US20080103086A1, “METHODS FOR THE TREATMENT OF DISEASES ASSOCIATED WITH THE SECRETION OF HMGB1” (priority 2006, published 2008).
Substitutions are numbered along the chain they refer to. Each block holds one molecule with its values, some of them ahead of it.

Columns and labels:
[1] = tested on: HMGB1 secretion; assay: Inhibition of HMGB1 secretion by Protein Kinase C inhibitor in LPS-treated RAW 264.7 cells (Western blot of supernatants); type: cell-based, Murine; conditions: 200 ng/mL LPS combined with inhibitor, 16 h, Go 6983 0.1 to 10 μM
Procedure: RAW 264.7 cells were treated with 200 ng/mL of LPS alone or combined with Gö 6983 (PKC inhibitor) at the indicated concentrations (μM) for 16 h. SB203580 (p38 inhibitor), PD098059 (ERK1/2 inhibitor), Bay 11-7082 (NF-κB inhibitor) were used for comparison. The supernatants were harvested and separated with 12% SDS-PAGE and Western blot was performed to observe the level of HMGB1.
To analyze the secretion of HMGB1 in the supernatants, culture media were replaced with serum-free OPTI-MEM (Gibco BRL) medium and concentrated with Amicon Centricon filtration (Millipore) after removing cell debris, and Western blot analysis was performed. The cytoplasmic and nuclear fractions from 5×10^6 cells were separated using a digitonin-based method (Bird, C. H. et al, Mol Cell Biol 21:5396-5407 (2001)) to observe the levels of HMGB1 in each fraction. The cells were lysed using 1% Nonidet P-40 buffer containing a protease inhibitor cocktail (Sigma), and the protein concentrations were measured by Bradford assay (Biorad) for the analysis of whole cell lysates (WCLs). The protein samples underwent 12% SDS-PAGE and were transferred to a nitrocellulose membrane. Western blot analysis was performed using rabbit anti-HMGB1 (BD Pharmingen) and HRP-labeled goat anti-rabbit Ig as primary and secondary antibodies, respectively.
To observe the inhibition of HMGB1 secretion by PKC inhibitor, RAW 264.7 cells were treated with 200 ng/mL of LPS alone or combined with Gö 6983 (Calbiochem), a conventional PKC (α, β, and γ) inhibitor including PKCδ and PKCζ, at the indicated concentrations for 16 h. Other inhibitors of SB203580 (p38 inhibitor, Calbiochem), PD098059 (ERK1/2 inhibitor, Calbiochem), Bay 11-7082 (NF-κB inhibitor, Calbiochem) were included. The supernatants were harvested and separated with 12% SDS-PAGE and Western blot was performed to observe the level of HMGB1.

[2] = molecular target: six His-tagged HMGB1 NLS1/2A, not tagged with GFP (UniProt P09429)
[3] = molecular target: six His-tagged wild type HMGB1 (UniProt P09429)
[4] = molecular target: T1, GST-KAP-α1 fusion protein (human, UniProt P52294 1-538); assay: GST pull-down with GST-KAP-α1 on glutathione-Sepharose beads, anti-His blot
T1 construct: Produced in E. coli BL21, immobilized on glutathione-Sepharose 4B beads; the primers start at the ATG of the coding region; not shown: glutathione S-transferase (GST) tag encoded by vector pGEX-4T-1 (Pharmacia)
Procedure: Direct binding of recombinant HMGB1 protein to KAP-α1 was tested to exclude the possibility that other HMGB1-interacting proteins present in cell lysates could have a role in binding. Purified six His-tagged wild type HMGB1 protein and boxes A (aa 1-87) and B (aa 88-162) proteins, which were identified at expected size by Coomassie blue staining (FIG. 4B, left), were purified from E. coli BL21. Same molar amounts of all wild and truncated forms of HMGB1 were added to GST-KAP-α1, and GST pull-down assay was performed.

[5] = molecular target: T2, Flag-tagged KAP-α1 (human, UniProt P52294 1-538); assay: co-immunoprecipitation from co-transfected RAW 264.7 cells, Western blot (summed up in Example 7)
T2 construct: Expressed in co-transfected RAW 264.7 cells; used in co-immunoprecipitation; also called FLAG-KAP-α1; not shown: Flag tag of vector pCMV-Tag2 (Stratagene)
Procedure: (§1) To observe the binding of KAP protein to each mutant HMGB1 in the cells, Flag-tagged KAP-α1 and each mutant HMGB1-GFP plasmid were co-transfected into RAW 264.7 cells. Cell homogenates of transfected RAW 264.7 cells were harvested and incubated with mouse anti-Flag (M2, Sigma) and mouse anti-GFP (Santa Cruz) at 4° C. overnight. Immune complexes were collected and the membranes were blotted with anti-Flag and anti-GFP, respectively. The reciprocal experiment was also performed. GST was used as a negative control. And to test the direct binding of HMGB1 to KAP-α1, GST pull-down assay was performed as described above.
(§2) To observe the effect of phosphorylation in both NLS regions of HMGB1 on the binding to KAP-α1 and on the subcellular localization of HMGB1 in the transfected cells, a number of site-directed mutations in six serines of NLS1 and NLS2 were generated using a HMGB1-GFP fusion construct plasmid (FIG. 5A). Serines 35, 39, 42, 46, 53 within or close to NLS1 and serine 181 at NLS2 were alternatively or totally mutated into alanine or glutamic acid. Substitution with alanine and glutamic acid simulated unphosphorylated and a phosphorylated states, respectively. RAW 264.7 cells were co-transfected with a Flag-tagged KAP-α1 plasmid and each mutant HMGB1-GFP plasmid, and immunoprecipitates using anti-GFP (FIG. 5B) or anti-Flag (FIG. 5C) were analyzed with anti-Flag for KAP-α1 or anti-GFP for HMGB1.

[6] = molecular target: T2, Flag-tagged KAP-α1; assay: co-immunoprecipitation from co-transfected RAW 264.7 cells (anti-GFP and anti-Flag), Western blot
Procedure: as §1, §2

Molecule: COc1ccc2c(c1)c(C1=C(c3c[nH]c4ccccc34)C(=O)NC1=O)cn2CCCN(C)C [Go 6983, 2-[1-(3-dimethylaminopropyl)-5-methoxyindol-3-yl]-3-(1H-indol-3-yl) Maleimide]
- levels of HMGB1 in the culture supernatants (HMGB1 secretion) [1]: decreased to undetectable level
- levels of HMGB1 in the culture supernatants (HMGB1 secretion) ([1]; listed as Go6983): the secretion of HMGB1 was inhibited

Molecule: protein kinase C (PKC) protein (Upstate)
- in vitro protein kinase assay ([γ-32P]ATP, autoradiography) [2]: showed little or no phosphorylation compared to the WT HMGB1
- in vitro protein kinase assay ([γ-32P]ATP, autoradiography) [3]: PKC phosphorylated WT HMGB1

Molecule: Cc1ccc(S(=O)(=O)/C=C/C#N)cc1 [Bay 11-7082]
- levels of HMGB1 in the culture supernatants (HMGB1 secretion) [1]: decreased in a concentration-dependent manner

Molecule: casein kinase II (CK II) (New England BioLabs)
- in vitro protein kinase assay ([γ-32P]ATP, autoradiography) [3]: CK II and cdc2 showed no phosphorylation of HMGB1

Molecule: Cdc2 kinase (New England BioLabs)
- in vitro protein kinase assay ([γ-32P]ATP, autoradiography) [3]: CK II and cdc2 showed no phosphorylation of HMGB1

Molecule: COc1cccc(-c2cc(=O)c3ccccc3o2)c1N [PD098059]
- levels of HMGB1 in the culture supernatants (HMGB1 secretion) [1]: no change of HMGB1 secretion

Molecule: C[S+]([O-])c1ccc(-c2nc(-c3ccncc3)c(-c3ccc(F)cc3)[nH]2)cc1 (stereo not shown) [SB203580]
- levels of HMGB1 in the culture supernatants (HMGB1 secretion) [1]: no change of HMGB1 secretion

B1: six His-tagged HMGB1 box B (aa 88-162) (other, human, UniProt P09429 88-162, looked up, not shown: small tags and cut ends)
chain: KFKDPNAPKRPPSAFFLFCSEYRPKIKGEHPGLSIGDVAKKLGEMWNNTAADDKQPYEKKAAKLKEKYEKDIAAY
notes: range 88-162
- binding result [4]: no binding

B3: HMGB1 NLS1E (HMGB1-GFP mutant) (other, human, UniProt P09429 1-215, looked up)
chain: MGKGDPKKPRGKMSSYAFFVQTCREEHKKKHPDAEVNFEEFEKKCEERWKTMEAKEKGKFEDMAKADKARYEREMKTYIPPKGETKKKFKDPNAPKRPPSAFFLFCSEYRPKIKGEHPGLSIGDVAKKLGEMWNNTAADDKQPYEKKAAKLKEKYEKDIAAYRAKGKPDAAKKGVVKAEKSKKKKEEEEDEEDEEDEEEEEDEEDEDEEEDDDDE
notes: not shown: EGFP of pEGFP-N1 and linker
- interaction relative to wild-type [5]: ≥ 50 % of wild-type
- interaction relative to wild-type [6]: ~50 % of wild-type

Results, then the molecule that gave them:

- interaction relative to wild-type [5]: ≥ 50 % of wild-type
B2: HMGB1 NLS1/2A (HMGB1-GFP mutant) (other, human, UniProt P09429 1-215, looked up)
chain: B3 chain with E35A, E39A, E42A, E46A, E53A, S181A
notes: as for B3

- interaction relative to wild-type [5]: ≥ 50 % of wild-type
B4: HMGB1 NLS2A (HMGB1-GFP mutant) (other, human, UniProt P09429 1-215, looked up)
chain: B3 chain with E35S, E39S, E42S, E46S, E53S, S181A
notes: as for B3

- binding result [6]: no binding
B5: HMGB1 NLS1/2E (HMGB1-GFP mutant) (other, human, UniProt P09429 1-215, looked up)
chain: B3 chain with S181E
notes: as for B3

- interaction relative to wild-type [5]: ≥ 50 % of wild-type
B6: HMGB1 NLS1A (HMGB1-GFP mutant) (other, human, UniProt P09429 1-215, looked up)
chain: B3 chain with E35A, E39A, E42A, E46A, E53A
notes: as for B3

- interaction relative to wild-type [5]: ≥ 50 % of wild-type
- interaction relative to wild-type [6]: ~50 % of wild-type
B7: HMGB1 NLS2E (HMGB1-GFP mutant) (other, human, UniProt P09429 1-215, looked up)
chain: B3 chain with E35S, E39S, E42S, E46S, E53S, S181E
notes: as for B3

- binding result [4]: no binding
B8: six His-tagged HMGB1 box A (aa 1-87) (other, human, UniProt P09429 1-87, looked up)
chain: MGKGDPKKPRGKMSSYAFFVQTCREEHKKKHPDASVNFSEFSKKCSERWKTMSAKEKGKFEDMAKADKARYEREMKTYIPPKGETKK
notes: range 1-87; Includes NLS1 (aa 28-44); Purified from E. coli BL21; also called boxes A (aa 1-87); not shown: 6×His tag and vector-encoded residues of pRSETB (Invitrogen)
